Measured values as given in publication doi:10.1101/2021.04.15.439997 (bioRxiv, 2021).

Biological target: the molecule itself
Assay: SEC-MALS

B1: Strep-tagged glucose-6-phosphate dehydrogenase (G6PDH) from Synechocystis (enzyme)
chain: not shown
  stoichiometry N: 4
